In US20210371489A1, “SITE 2 SINGLE-CHAIN INSULIN ANALOGUES” (Case Western Reserve University, priority 2018, published 2021):

What was measured:
insulin receptor (IR) = insulin receptor (IR) (Homo sapiens, UniProt P06213); details: cited from earlier work
[1] = system: diabetic Sprague-Dawley rats; details: diabetic (streptozotocin) Sprague-Dawley rats; cited from earlier work
[2] = target: T1, FLAG epitope-tagged holoreceptor of human type 1 insulin-like growth factor receptor (human, UniProt P08069 31-1367, limits assumed); assay: ratio of dissociation constants from competitive displacement of 125I-IGF-I on plate-captured FLAG-tagged hIGFR; relative to insulin lispro
T1 construct: mature; Holoreceptor captured on 96 well plates coated with anti-FLAG monoclonal antibody; The natural receptor is processed from one precursor into alpha and beta chains; also called hIGFR; IGF-1R
Description: Cross-reactivity of the single-chain insulin analogues with IGF-1R was studied using a FLAG epitope-tagged holoreceptor to human type 1 insulin-like growth factor receptor (hIGFR) bound to 96 well plates coated with anti-FLAG monoclonal antibody. […] This is used as a marker for mitogenic potential, where less IGF-R affinity is interpreted as lower mitogenic potential.

Row | IGF1-R (Rel. Aff.) [2] [%] | Molecule | receptor-binding affinity relative to KP-insulin (insulin receptor (IR)) | in vivo potency [1]
1 |  | 2-F-PheB24-DKP-insulin: derivative of DKP-insulin containing ortho-monofluoro-phenylalanine at position B24 | ca. 35(±5) % | potency and duration of signaling are enhanced
2 | 11 | single-chain insulin EA8, EA14, QA17, PE, EAGPRR (ligand, Single-chain insulin analogue (B domain, 6-residue C domain, A domain)) FVNQHLCGSHLVEALYLVCGERGFFYTPETEAGPRRGIVEQCCESICSLEQLQNYCN |  | 
3 | 5 | single-chain insulin EA8, EA14, RA17, EP, EAGPRR (ligand) FVNQHLCGSHLVEALYLVCGERGFFYTEPTEAGPRRGIVEQCCESICSLEQLRNYCN |  | 
4 | 16 | single-chain insulin HA8, EA14, FB17, PE, EEGPRR (ligand) FVNQHLCGSHLVEALYFVCGERGFFYTPETEEGPRRGIVEQCCHSICSLEQLENYCN |  | 
5 | 25 | single-chain insulin EA8, EA14, RA17, PE, EAGPRR (ligand) FVNQHLCGSHLVEALYLVCGERGFFYTPETEAGPRRGIVEQCCESICSLEQLRNYCN |  | 
6 | 2 | single-chain insulin HA8, EA14, NB17, PE, EEGPRR (ligand) FVNQHLCGSHLVEALYNVCGERGFFYTPETEEGPRRGIVEQCCHSICSLEQLENYCN |  | 
7 | 18 | single-chain insulin HA8, EA14, QA17, PE, EAGPRR (ligand) FVNQHLCGSHLVEALYLVCGERGFFYTPETEAGPRRGIVEQCCHSICSLEQLQNYCN |  | 
